We go through two molecules from PMC8720176.

Experiment in all cases: X-ray crystallography
The target in series [1] is T1, Δ30-EXO5 WT (Homo sapiens, UniProt Q9H790 31-373, del1-30).
T1 sequence: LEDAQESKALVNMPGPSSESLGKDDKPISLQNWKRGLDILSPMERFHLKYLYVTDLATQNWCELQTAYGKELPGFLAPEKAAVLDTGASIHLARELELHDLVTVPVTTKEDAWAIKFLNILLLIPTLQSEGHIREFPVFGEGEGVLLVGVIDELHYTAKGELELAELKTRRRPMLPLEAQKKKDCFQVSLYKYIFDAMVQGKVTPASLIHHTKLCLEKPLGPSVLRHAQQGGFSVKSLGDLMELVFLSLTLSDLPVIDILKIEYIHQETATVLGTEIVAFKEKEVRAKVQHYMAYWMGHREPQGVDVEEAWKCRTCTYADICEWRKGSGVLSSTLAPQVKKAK

The target of a further series is T2, T88E-Δ30-EXO5 (Homo sapiens, UniProt Q9H790 31-373, T88E;del1-30).
T2 sequence: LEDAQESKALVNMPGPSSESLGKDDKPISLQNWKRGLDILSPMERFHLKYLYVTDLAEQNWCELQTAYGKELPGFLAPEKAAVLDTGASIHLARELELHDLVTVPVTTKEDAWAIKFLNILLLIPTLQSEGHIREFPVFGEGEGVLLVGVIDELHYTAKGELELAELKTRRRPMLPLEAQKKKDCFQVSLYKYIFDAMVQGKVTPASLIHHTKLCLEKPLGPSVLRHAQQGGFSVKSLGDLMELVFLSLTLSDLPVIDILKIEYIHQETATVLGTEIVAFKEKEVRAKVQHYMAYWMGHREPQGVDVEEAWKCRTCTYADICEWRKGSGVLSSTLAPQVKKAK

Series [2] has as its target T1, Δ30-EXO5 WT. The source holds these as a separate data set.

Like-named read-outs stand apart in the source and are kept apart here.

Take ATTGCTGAAGGG (ssDNA) [12mer]: the binding result with Δ30-EXO5 WT [1] was “binds”. Consider TTTTTTTTTTTT (ssDNA, 3' thiol modifier C3 S-S) [dT12], for which the binding result with T88E-Δ30-EXO5 and with Δ30-EXO5 WT [2] was “binds” in each case.
